According to US20090110632A1 (published 2009):
Where a chain is given by its changes, count along the chain named. In names and notes the source's numbering stands.

B1: N56A HMFG1 (antibody, human IgG1, kappa, V domains shown)
VH: QVQLVQSGAEVKKPGASVKVSCKASGYTFSAYWIEWVRQAPGKGLEWVGEILPGSANSRYNEKFKGRVTVTRDTSTNTAYMELSSLRSEDTAVYYCARSYDFAWFAYWGQGTLVTVSS
VL: DIQMTQSPSSLSASVGDRVTITCKSSQSLLYSSNQKIYLAWYQQKPGKAPKLLIYWASTRESGVPSRFSGSGSGTDFTFTISSLQPEDIATYYCQQYYRYPRTFGQGTKVEIKR
B2: N56G HMFG1 (antibody, human IgG1, kappa, V domains shown)
VH: B1 VH with A56G
VL: B1 VL
notes: also called N56G mutant
B3: N56C HMFG1 (antibody, human IgG1, kappa, V domains shown)
VH: B1 VH with A56C
VL: B1 VL

Biological target: T1, MUC1-GST fusion protein containing seven variable number tandem repeat (VNTR) region (UniProt P15941 166-305)
T1 construct: domain: seven variable number tandem, repeat (VNTR) region; Produced by the applicant; coated on the ELISA plate at 1 ug/ml; also called MUC1 antigen; antigen; not shown: GST fusion partner
Experiment: ELISA, plate-coated MUC1-GST; EC50 against HMFG1 standard of the same assay
Experimental: 96-well plates (Nunc Maxisorp) were coated with 100 μl of MUC1 at 1 μg/ml in carbonate-bicarbonate buffer (Sigma C3041) overnight at 4° C. MUC1 antigen used here was produced by the applicant and is a MUC1-GST fusion protein containing seven variable number tandem, repeat (VNTR) region; VNTR is the antigen recognised by MUC1.
Plates were then washed with a wash solution of PBS (phosphate buffered saline), +0.05% Tween 20, and serial dilutions of HMFG1 samples (wildtype protein or mutant) in incubation buffer (200 ml of PBS +0.2 g BSA (bovine serum albumin)) applied to the wells and incubated at 37° C. for 1 hour.
Plates were again washed, and treated with detection antibody (1.0 μl HRP (horse radish peroxidase) anti-human IgG (BD Pharmingen, P# 555788, or Jackson P#209-035-056) +1 ml incubation buffer) at 37° C. for 30 min, washed with wash buffer, and developed with TMB (tetramethylbenzidine) reagent (100 μl TMB (Sigma, T8665) warmed to room temperature and 100 μl sulphuric acid was used to stop the reaction after approximately 6 minutes). The optical density of the plates was read at 450 nm on a Spectromax plate reader immediately after development.

T1 sequence (P15941 126-265): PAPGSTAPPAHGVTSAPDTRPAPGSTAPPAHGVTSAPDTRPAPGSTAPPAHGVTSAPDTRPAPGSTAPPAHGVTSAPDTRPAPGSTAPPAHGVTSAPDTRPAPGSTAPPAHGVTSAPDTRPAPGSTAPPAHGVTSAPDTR

| fold increased affinity compared to HMFG1 standard (from EC50) | Binder |
| --- | --- |
| ~5 fold | B1 |
| ~10 fold | B2 |
| ~20 fold | B3 |
